Experimental data taken from patent US20220403002A1.

Target: scFv of the anti-GLA antibody, forcibly expressed on M1 cells (Transfectant)
Experiment: cell-based or functional assay

scFv of the anti-GLA antibody, forcibly expressed on M1 cells (Transfectant), sequence (scFv, as listed by the source): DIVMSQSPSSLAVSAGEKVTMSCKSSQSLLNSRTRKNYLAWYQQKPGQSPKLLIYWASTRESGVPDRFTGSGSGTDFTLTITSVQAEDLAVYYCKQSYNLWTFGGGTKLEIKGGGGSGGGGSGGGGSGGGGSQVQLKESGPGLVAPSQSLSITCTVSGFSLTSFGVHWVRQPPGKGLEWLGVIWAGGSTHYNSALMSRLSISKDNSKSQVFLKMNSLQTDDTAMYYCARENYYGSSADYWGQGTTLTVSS

Substance: CD19 CAR expressed on human T cells (CD19 CAR-T cells)
- cell viability rate of M1 cells (in vitro killing assay, control co-culture): 66.9%
